The values below come from US20140120095A1 (Boehringer Ingelheim, published 2014).

Experiment [1] has as its target T1, recombinant human DLL4 (human, UniProt Q9NR61 25-522).
T1 construct: also called rhDLL4; hDLL4
Briefly: binding ELISA, coated rhDLL4. How it is done:
(§1) In order to determine cross-reactivity to mouse DII4 a binding ELISA is performed. […] Wells are blocked with a casein solution (1% in PBS). VHHs are applied as dilution series and binding is detected using a mouse anti-myc (Roche) and an anti-mouse-AP conjugate (Sigma, St Louis, Mo., USA) (FIG. 7 A-H). As reference, binding to human DII4 is measured.
In general terms: An ELISA detects its analyte on a solid surface through an enzyme-linked reagent.

The target of experiment [2] is T2, human DLL4 overexpressed on cells (human, UniProt Q9NR61 27-685).
T2 construct: full length human DLL4 on CHO or HEK293 cells; also called CHO-hDLL4; CHO-hDII4
Briefly: FACS titration on HEK293-hDLL4 cells, MCF. How it is done: In order to determine the cynomologus cross-reactivity of the VHHs, a FACS binding experiment is performed. Cynomolgus DII4 expressing HEK293 cells (transient or stable transfection) are used for a titration binding experiment of the VHHs. After a 30 minutes incubation on ice, all samples are washed and detection is performed by applying anti-c-myc˜Alexa647 (Santa Cruz Biotechnology, Santa Cruz, Calif., USA). Human and mouse DII4 overexpressing HEK293 cells are taken as reference. The mean MCF value is determined on the FACS Array and used for calculation of the EC₅₀ value (see FIG. 9 A-E).

In experiment [3] the target is T2, human DLL4 overexpressed on cells. Briefly: competitive FMAT, hNotch1-Fc on CHO-hDLL4.
Experiment [4] addresses T3, mouse DLL4 overexpressed on cells (mouse, UniProt Q9JI71 27-686).
T3 construct: whole, on cells; also called CHO-mDLL4; CHO-mDII4
Briefly: FMAT, labelled hNotch1-Fc on CHO-mDLL4, periplasmic extract. An excerpt: (§2) All calculations are based on the FL1_total signal which comprises the average of the fluorescence per well times the number of counts per well.
Target sequence in this assay (Q9JI71 27-686): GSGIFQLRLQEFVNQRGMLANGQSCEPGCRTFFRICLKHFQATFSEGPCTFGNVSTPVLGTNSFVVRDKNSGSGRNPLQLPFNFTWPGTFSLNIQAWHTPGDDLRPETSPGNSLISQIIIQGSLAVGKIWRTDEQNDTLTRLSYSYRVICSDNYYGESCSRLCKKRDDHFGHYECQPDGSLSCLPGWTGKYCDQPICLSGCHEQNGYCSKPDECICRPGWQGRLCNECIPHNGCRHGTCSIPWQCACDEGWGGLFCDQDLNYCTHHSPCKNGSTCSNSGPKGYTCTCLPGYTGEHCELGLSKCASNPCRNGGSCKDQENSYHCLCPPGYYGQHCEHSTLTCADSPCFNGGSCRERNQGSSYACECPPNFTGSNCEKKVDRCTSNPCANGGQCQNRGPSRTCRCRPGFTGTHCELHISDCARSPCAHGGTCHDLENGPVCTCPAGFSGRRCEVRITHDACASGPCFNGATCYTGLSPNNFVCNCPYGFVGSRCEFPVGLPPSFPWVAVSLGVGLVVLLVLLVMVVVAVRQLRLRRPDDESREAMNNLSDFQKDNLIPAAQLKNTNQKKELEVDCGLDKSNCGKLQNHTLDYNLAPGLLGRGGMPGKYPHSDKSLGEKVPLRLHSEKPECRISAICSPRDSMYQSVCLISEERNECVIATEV

The target of experiment [5] is T1, recombinant human DLL4. Put plainly: Biacore off-rate, periplasmic extract. In general terms: Surface plasmon resonance follows binding to a sensor surface in real time, without labels.
Experiment [6] concerns the target T3, mouse DLL4 overexpressed on cells. Put plainly: FMAT competition on CHO-mDLL4 cells; blocked ligand Alexa-647 labelled hNotch1-Fc.
Experiment [7] deals with T1, recombinant human DLL4. Briefly: competition ELISA, biot-hDLL4 to coated hNotch1-Fc. An excerpt:
Residual binding of biotinylated human DII4 is detected using horseradish peroxidase (HRP) conjugated extravidin (Sigma, St. Louis, Mo., USA) (FIG. 3 A-C). Human DII4 is biotinylated as described above.

Another experiment addresses T4, human DLL1 (human, UniProt O00548 18-545, limits assumed).
T4 construct: also called hDLL1
T4 sequence (looked up): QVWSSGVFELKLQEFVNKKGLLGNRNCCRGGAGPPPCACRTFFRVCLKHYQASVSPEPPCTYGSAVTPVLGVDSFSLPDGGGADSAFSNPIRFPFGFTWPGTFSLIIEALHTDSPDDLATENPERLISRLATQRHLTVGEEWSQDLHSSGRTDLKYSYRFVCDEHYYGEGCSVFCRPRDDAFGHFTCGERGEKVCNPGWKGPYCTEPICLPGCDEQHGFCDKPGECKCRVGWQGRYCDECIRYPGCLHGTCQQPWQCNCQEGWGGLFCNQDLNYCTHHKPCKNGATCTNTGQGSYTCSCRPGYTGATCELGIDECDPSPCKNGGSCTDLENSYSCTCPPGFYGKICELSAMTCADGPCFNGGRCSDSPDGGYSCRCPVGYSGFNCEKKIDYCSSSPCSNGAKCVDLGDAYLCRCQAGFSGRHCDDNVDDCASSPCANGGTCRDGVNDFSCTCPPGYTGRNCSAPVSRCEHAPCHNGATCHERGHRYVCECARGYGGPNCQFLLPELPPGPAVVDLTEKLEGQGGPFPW
Briefly: binding ELISA on coated recombinant human DLL1, OD 405 nm. The method, boiled down: (§3)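 Plates coated overnight at 4° C with 1 μg/mL ligand, blocked with 1% casein in PBS. VHH dilution series applied; bound VHH detected via mouse anti-myc then anti-mouse-AP conjugate.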

In experiment [8] the target is T2, human DLL4 overexpressed on cells. Briefly: cell-based or functional assay.
The target of another experiment is T5, recombinant mouse DLL4 (mouse, UniProt Q9JI71 27-532).
T5 construct: extracellular domain; also called rmDLL4; mDLL4
T5 sequence (Q9JI71 27-532): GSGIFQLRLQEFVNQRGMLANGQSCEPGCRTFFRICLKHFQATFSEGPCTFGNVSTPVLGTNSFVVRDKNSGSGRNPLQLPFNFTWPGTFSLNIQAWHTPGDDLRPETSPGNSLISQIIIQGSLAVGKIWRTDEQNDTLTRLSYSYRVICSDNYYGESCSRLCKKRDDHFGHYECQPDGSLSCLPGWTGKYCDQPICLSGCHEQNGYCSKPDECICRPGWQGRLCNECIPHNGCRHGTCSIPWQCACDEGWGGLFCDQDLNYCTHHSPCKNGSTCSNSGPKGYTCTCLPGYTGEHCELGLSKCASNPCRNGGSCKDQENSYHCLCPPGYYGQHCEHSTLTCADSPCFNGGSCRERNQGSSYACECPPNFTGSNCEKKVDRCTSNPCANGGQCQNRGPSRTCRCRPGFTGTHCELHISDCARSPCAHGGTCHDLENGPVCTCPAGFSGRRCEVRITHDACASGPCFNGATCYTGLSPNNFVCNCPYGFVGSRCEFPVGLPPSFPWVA
Put plainly: binding ELISA on coated recombinant mouse DLL4, OD 405 nm. How it is done:
as §1

In experiment [9] the target is T1, recombinant human DLL4. Briefly: cell-based or functional assay.
Experiment [10] deals with T1, recombinant human DLL4. Briefly: SPR Biacore T100, hDLL4 on chip; heterogeneous binding curve, no 1:1 fit. The protocol: Kinetic analysis to determine the affinity of the DII4-VHH interaction is performed by Surface Plasmon Resonance (SPR) on a Biacore T100 instrument. […] Purified VHHs or Fab fragment are injected for 2 minutes at different concentrations (between 10 and 300 nM) and allowed to dissociate for 20 min at a flow rate of 45 μl/min. Between sample injections, the surfaces are regenerated with 10 mM glycine pH1.5 and 100 mM HCl. HBS-N (Hepes buffer pH7.4) is used as running buffer. If possible, data are evaluated by fitting a 1:1 interaction model (Langmuir binding) onto the binding curves. The affinity constant KD is calculated from resulting association and dissociation rate constants (kₐ) and […].

The target in experiment [11] is T6, cynomolgus DLL4 overexpressed on cells (cynomolgus, UniProt Q9NR61 27-685 (human entry)).
T6 construct: also called cyno DII4; cDLL4
T6 chain: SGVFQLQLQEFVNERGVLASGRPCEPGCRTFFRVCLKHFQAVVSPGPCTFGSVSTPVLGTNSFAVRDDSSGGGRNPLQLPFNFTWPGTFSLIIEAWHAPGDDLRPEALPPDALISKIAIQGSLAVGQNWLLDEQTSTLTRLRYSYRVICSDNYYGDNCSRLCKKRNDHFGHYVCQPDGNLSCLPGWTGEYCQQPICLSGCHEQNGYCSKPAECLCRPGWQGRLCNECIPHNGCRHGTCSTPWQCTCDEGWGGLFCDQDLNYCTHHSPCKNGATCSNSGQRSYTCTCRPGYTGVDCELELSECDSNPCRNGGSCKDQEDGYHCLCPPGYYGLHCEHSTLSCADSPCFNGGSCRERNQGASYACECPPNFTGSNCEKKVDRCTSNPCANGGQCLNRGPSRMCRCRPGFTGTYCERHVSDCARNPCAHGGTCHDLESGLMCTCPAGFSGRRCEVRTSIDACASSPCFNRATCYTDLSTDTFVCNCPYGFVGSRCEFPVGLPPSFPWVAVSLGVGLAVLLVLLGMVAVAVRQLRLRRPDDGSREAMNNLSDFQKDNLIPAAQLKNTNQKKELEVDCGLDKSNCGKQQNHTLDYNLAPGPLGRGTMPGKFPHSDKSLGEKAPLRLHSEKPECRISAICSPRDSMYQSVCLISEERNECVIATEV
Briefly: FACS titration on HEK293-cDLL4 cells, MCF. The method in brief:
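HEK293 cells overexpressing DLL4 (transient or stable) were incubated with VHH titrations for 30 min on ice. After washing, binding was detected with anti-c-myc-Alexa647 by flow cytometry, and the mean MCF was used to calculate EC50.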

In the next experiment the target is T7, human Jagged-1 (human, UniProt P78504 34-1067, limits assumed).
T7 construct: also called hJagged-1; hJAG1
Briefly: binding ELISA on coated recombinant human Jagged-1, OD 405 nm. The method in brief: as §3

Experiment [12] concerns the target T2, human DLL4 overexpressed on cells. Put plainly: FMAT, labelled hNotch1-Fc on CHO-hDLL4, periplasmic extract.
Source text: as §2

The target in experiment [13] is T8, human DLL4 expressed on cells (CHO-hDLL4; HEK293-hDLL4) (human, UniProt Q9NR61 27-685).
T8 construct: full length human DLL4 overexpressed on CHO cells (FMAT, FACS) or HEK293 cells (reporter assay)
Briefly: FMAT competition on CHO-hDLL4 cells; unlabelled rhNotch1-Fc competes with Alexa-647 labelled hNotch1-Fc.

Experiment [14] addresses T9, mouse DLL4 expressed on CHO cells (mouse, UniProt Q9JI71 27-686).
T9 construct: whole, on cells; also called mDLL4; CHO-mDLL4
Put plainly: FMAT competition on CHO-mDLL4 cells; unlabelled rhNotch1-Fc competes with Alexa-647 labelled hNotch1-Fc.

B1: DLLBII104G01 (VHH)
VHH: EVQLVESGGGLVQAGGSLRLSCAASGFTFDDYAIGWFRQAPGKEREGVSCISSSDGSTYYADSVKGRFTISSDNAKNTVYLQMNSLKPEDTAVYYCATAWCDSSWYRSFVGYWGQGTQVTVSS
notes: also called 104G1
In the case of B1, the EC50 (commonly the concentration needed to bring the measured effect to its halfway point) with recombinant human DLL4 [1] was found to be 8.4 nM. Moreover, the entries for the 50% effective concentration (EC50 (read off the curve)) in experiment [2] and in [11] were ~4 nM and ~5 nM, respectively. Further, the values for the IC50 (in experiment [3]; in the experiment with recombinant human DLL4 [7]) were 2.5 nM and 1.1 nM, respectively. Also, the “% inh” value in experiment [4] is 86%; in experiment [12] it was 94%. Also, the koff (in general, a measure of how fast the partners let go of each other) was 0.0012 s⁻¹ with recombinant human DLL4 [5] and 0.0006 to 0.003 s⁻¹ with recombinant human DLL4 [10]. Besides, in [6], the “IC50 (read off the curve)” value is ~60 nM. Also, the binding result with human DLL1, with recombinant mouse DLL4 and in the experiment with human Jagged-1 was “no binding (tested: 5e-7 M)” throughout. Moreover, the “IC50, DLL4/Notch1 reporter assay” value in [8] turned out to be 964 nM. Also, in the experiment with recombinant human DLL4 [9], the “IC50 (nM) (experiment 1), DLL4 proliferation assay (HUVEC)” value came to 103 nM. In addition, in the experiment with recombinant human DLL4 [9], the “IC50 (nM) (experiment 2), DLL4 proliferation assay (HUVEC)” value is 32 nM. In addition, in the experiment with recombinant human DLL4 [10], the Kd (commonly a measure of binding affinity in units of concentration) fell in the range of 4 to 24 nM. Moreover, the kon (in general, the rate constant with which the complex forms) with recombinant human DLL4 [10] was in the range of 120000 to 150000 M⁻¹ s⁻¹.

B2: human Notch1/Fc chimera (R&D Systems) (Fc fusion, UniProt P46531 19-526, looked up, not shown: a dimerising Fc or GST)
chain: ARGPRCSQPGETCLNGGKCEAANGTEACVCGGAFVGPRCQDPNPCLSTPCKNAGTCHVVDRRGVADYACSCALGFSGPLCLTPLDNACLTNPCRNGGTCDLLTLTEYKCRCPPGWSGKSCQQADPCASNPCANGGQCLPFEASYICHCPPSFHGPTCRQDVNECGQKPGLCRHGGTCHNEVGSYRCVCRATHTGPNCERPYVPCSPSPCQNGGTCRPTGDVTHECACLPGFTGQNCEENIDDCPGNNCKNGGACVDGVNTYNCRCPPEWTGQYCTEDVDECQLMPNACQNGGTCHNTHGGYNCVCVNGWTGEDCSENIDDCASAACFHGATCHDRVASFYCECPHGRTGLLCHLNDACISNPCNEGSNCDTNPVNGKAICTCPSGYTGPACSQDVDECSLGANPCEHAGKCINTLGSFECQCLQGYTGPRCEIDVNECVSNPCQNDATCLDQIGEFQCICMPGYEGVHCEVNTDECASSPCLHNGRCLDKINEFQCECPTGFTGHLCQ
modifications: Alexa-647 labelled in the FMAT assay
notes: also called hNotch1-Fc; rhNotch1/Fc
For B2, the “IC50 (read off the curve)” value in [13] was ~4 nM; in experiment [14] it was ~2 nM.
